Response data for one molecule are collected here from PMC7674511.

For the experiment, the target named is Pro-LC3B, Q9GZQ8. Briefly: fluorescence anisotropy. Particulars: chain shown with the change; FITC-labeled peptide 1 μM; read at the highest Pro-LC3B concentration plotted (about 50 μM); parent: est. 0.071; read off a plot. In general terms: Fluorescence polarisation rises when a labelled molecule tumbles more slowly, as on binding a larger partner.

Consider VHDRNANSAVMAGTFNLPSD [BAG6 LIR1 peptide (residues 124-143), P46379-2 Y132A; V135A], for which the response was -0.002.
